Sequences and labels used below:
B1: BGAm1371 (antibody, V domains shown)
VH: QVQLKQSGAELVKPGASVKLSCTASGFNIKDTYIHWVKQRPEQGLEWIGRIDPANGNTMFASEFQGKATITAYTSSNTAYMQLSSLTSGDTAVYYCARSKIHYDYDEGFAYWGQGTLVTVSS
VL: NIVLTQSPPSLAVSLGQRATVSCRASESVDDYGYSFLHWYQQKPGQPPKLLIYRASNLESGIPARFSGSGSRTDFTLTINPVETDDVATYYCQQSNQNPRTFGGGTKLEIK
B2: BGA1421 (antibody, human IgG1, kappa, V domains shown)
VH: QVQLVQSGAEVKKPGSSVKVSCKASGYIFTTYNVHWVRQAPGQGLEWIGSIYPDNGDTSYNQNFKGRATITADKSTSTAYMELSSLRSEDTAVYYCARGDFAYWGQGTLVTVSS
VL: DIQMTQSPSSLSASVGDRVTITCKASQGVSNDVAWYQQKPGKAPKLLIYSASYRYTGVPSRFSGSGSGTDFTFTISSLQPEDIATYYCQQHSTTPYTFGQGTKLEIKR
B3: BGAh9239 (antibody, human IgG1, kappa, V domains shown)
VH: QVQLVQSGAEVKKPGSSVKVSCKASGYTFSIYWLNWVRQAPGQGLEWMGQIYPENADTNYSGKFKGRVTITADKSTSTAYMELSSLRSEDTAVYFCARGGFDYWGQGTLVTVSS
VL: DIQMTQSPSSLSASVGDRVTITCRASENIYSNLAWYQQKPGKAPKLLIYTATNLAEGVPSRFSGSGSGTDFTLTISSLQPEDFATYYCQHFYGILYTFGQGTRLEIKR
B4: BGAh9179 (antibody, human IgG1, kappa, V domains shown)
VH: QVQLVQSGAEVKKPGASVKVSCKASGYTITDTYIHWVRQAPGQGLEWMGRIDPAEGNTMFASEFQGRVTMTADTSTSTVYMELSSLRSEDTAVYYCARSKIHYDYDEGFAYWGQGTLVTVSS
VL: DIVLTQSPDSLAVSLGERATINCRASESVDDYGYSFLHWYQQKPGQPPKLLIYRASNLESGVPDRFSGSGSGTDFTLTISSLQAEDVAVYYCQQSNQNPRTFGGGTKVEIKR
B5: BGAm1823 (antibody, V domains shown)
VH: EVQLQQSGAELVKPGASVKISCKASGYAFSIYWMNWVKQRPGKGLEWIGQIYPENGDTNYNGKFKGKATLTADKSSSTAYMHLSSLTSEDSAVYFCARGGFDYWGQGTTLTVSS
VL: NIVMTQSPASLSASVGETVTITCRASENIYSNLAWYQQKQGKSPQLLVYTATNLADGVPSRFSGSGSGTQFSLKINSLQPEDFGSYYCQHFYGILYTFGSGTRLEIK

human FGFR2b on cells (human), sequence (P21802 other isoform, or with tags, fused parts or gaps limits assumed): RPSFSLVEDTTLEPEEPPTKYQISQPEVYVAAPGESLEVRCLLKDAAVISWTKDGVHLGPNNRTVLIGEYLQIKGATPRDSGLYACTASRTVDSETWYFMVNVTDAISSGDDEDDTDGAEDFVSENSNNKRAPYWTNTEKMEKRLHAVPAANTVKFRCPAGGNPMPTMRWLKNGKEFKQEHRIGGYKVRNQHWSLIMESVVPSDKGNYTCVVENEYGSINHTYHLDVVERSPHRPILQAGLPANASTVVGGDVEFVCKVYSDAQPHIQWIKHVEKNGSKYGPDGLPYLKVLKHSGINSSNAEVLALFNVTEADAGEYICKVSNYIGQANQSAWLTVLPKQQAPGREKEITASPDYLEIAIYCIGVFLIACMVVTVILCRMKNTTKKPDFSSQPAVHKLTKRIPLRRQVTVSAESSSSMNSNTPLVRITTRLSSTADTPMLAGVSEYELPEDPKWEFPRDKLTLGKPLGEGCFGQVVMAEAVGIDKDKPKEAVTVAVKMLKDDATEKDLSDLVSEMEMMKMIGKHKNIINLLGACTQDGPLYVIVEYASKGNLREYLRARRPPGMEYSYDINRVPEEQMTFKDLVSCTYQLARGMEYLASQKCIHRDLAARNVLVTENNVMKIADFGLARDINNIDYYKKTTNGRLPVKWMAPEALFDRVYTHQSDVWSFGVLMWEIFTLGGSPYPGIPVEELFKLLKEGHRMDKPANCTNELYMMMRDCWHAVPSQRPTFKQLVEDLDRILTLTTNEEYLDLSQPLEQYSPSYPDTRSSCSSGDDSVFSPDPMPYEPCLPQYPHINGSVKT

The target of one assay is human FGFR2c on cells (human) (UniProt P21802). As to the kind of experiment: flow cytometry, human FGFR2c OE cells.
human FGFR2c on cells (human), sequence (P21802 22-821): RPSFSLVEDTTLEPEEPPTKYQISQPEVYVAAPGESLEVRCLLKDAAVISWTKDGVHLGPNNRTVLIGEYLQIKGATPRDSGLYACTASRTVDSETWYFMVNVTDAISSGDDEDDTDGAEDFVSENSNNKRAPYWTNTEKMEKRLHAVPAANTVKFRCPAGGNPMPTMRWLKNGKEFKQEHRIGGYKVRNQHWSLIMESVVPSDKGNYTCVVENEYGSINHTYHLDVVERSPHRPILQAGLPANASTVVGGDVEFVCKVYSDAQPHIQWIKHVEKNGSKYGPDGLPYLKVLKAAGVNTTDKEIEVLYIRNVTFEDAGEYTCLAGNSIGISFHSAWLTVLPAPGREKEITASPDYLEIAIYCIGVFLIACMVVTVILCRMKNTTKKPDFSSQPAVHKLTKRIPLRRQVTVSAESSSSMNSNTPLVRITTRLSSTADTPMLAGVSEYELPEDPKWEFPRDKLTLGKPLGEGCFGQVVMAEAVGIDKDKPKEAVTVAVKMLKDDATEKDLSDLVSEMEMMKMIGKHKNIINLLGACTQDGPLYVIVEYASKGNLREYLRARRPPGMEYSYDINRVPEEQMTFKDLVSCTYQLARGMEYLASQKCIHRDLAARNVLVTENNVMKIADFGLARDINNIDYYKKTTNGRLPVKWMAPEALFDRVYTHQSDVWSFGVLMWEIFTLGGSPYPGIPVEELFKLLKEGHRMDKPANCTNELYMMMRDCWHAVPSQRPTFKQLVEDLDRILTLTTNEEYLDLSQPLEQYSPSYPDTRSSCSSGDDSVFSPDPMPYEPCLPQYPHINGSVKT
The molecule B1 showed an Emax (MFI) of 33 MFI.

Take B2: the Emax (MFI) was found to be 40 MFI.

Molecule B3 came in with an Emax (MFI) of 36 MFI.

The next assay concerns the target mouse FGFR2b on cells (mouse) (UniProt P21803). As to the kind of experiment: flow cytometry, murine FGFR2b OE cells. In general terms: In flow cytometry, cells or beads pass a laser one at a time.
As a reminder, the EC50 is the concentration needed to bring the measured effect to its halfway point. B1 showed a concentration for a half-maximal effect (EC50) of 1.78 nM.

Consider B2, for which the EC50 worked out at 0.81 nM.

Take B3: the EC50 came to 1.59 nM.

The target in the next assay is human FGFR2b protein (recombinant, coated on ELISA plates) (human) (UniProt P21802). The experiment in a line: ELISA, plate-coated human FGFR2b.
human FGFR2b protein (recombinant, coated on ELISA plates) (human), sequence (P21802 other isoform, or with tags, fused parts or gaps limits assumed): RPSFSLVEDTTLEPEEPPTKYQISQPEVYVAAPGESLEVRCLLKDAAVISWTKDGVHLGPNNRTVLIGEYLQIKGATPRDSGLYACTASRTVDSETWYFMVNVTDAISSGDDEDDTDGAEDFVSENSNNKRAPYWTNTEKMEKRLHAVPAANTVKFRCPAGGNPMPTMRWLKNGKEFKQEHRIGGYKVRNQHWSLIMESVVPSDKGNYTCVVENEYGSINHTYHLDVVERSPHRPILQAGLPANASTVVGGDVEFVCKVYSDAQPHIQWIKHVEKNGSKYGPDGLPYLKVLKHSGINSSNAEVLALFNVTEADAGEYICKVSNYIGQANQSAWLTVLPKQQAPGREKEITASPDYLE
Regarding B1, the EC50 came to 0.19 nM and the Emax (OD450) amounted to 3.35 OD450.

For B2, the EC50 came to 0.61 nM and the Emax (OD450) stood at 2.62 OD450.

For the molecule B3, the EC50 came to 0.26 nM and the Emax (OD450) came out at 3.37 OD450.

Another assay has as its target human FGFR2c protein (recombinant, coated on ELISA plates) (human) (UniProt P21802). The experiment in a line: ELISA, plate-coated human FGFR2c. Background: In an ELISA, binding on a coated surface is turned into a signal by an enzyme label.
For B4, the Emax (A450) was 0.086 A450.

Regarding B1, the Emax (A450) is 0.204 A450 and the Emax (OD450) was 0.07 OD450.

Regarding B5, the Emax (A450) worked out at 0.116 A450.

With B2, the Emax (OD450) came to 0.09 OD450.

B3: the Emax (A450) turned out to be 0.13 A450 and the Emax (OD450) worked out at 0.07 OD450.

The target of a further assay is mouse FGFR2b on cells (mouse) (UniProt P21803). As to the kind of experiment: flow cytometry, Expi293 cells overexpressing mouse FGFR2b.
B4 had an EC50 of 4.25 nM and an Emax (MFI) of 5.15e+06 MFI.

Take B1: the EC50 worked out at 3.5 nM and the Emax (MFI) is 4.98e+06 MFI.

Molecule B5 displayed an EC50 of 3.37 nM and an Emax (MFI) of 5.19e+06 MFI.

In turn, B3 returned an EC50 of 2.67 nM and an Emax (MFI) of 5.1e+06 MFI.

The target in another assay is soluble human FGFR2b protein (his tag, in-house generated) (human) (UniProt P21802). As to the kind of experiment: SPR, antibody captured by anti-human Fc, human FGFR2b.
A word on the Kd: it is the free concentration of one partner at which half of the binding sites on the other are occupied at equilibrium, for simple one-to-one binding. The low end stands for tighter binding, the high end for weaker binding. By koff is commonly meant a measure of how fast the partners let go of each other. Lower therefore signals a long-lived complex. Broadly, the kon is a measure of how fast the partners come together. Low values mean slower complex formation, high ones faster complex formation. As to B4, the Kd stood at 21.8 nM, the koff stood at 0.00178 s⁻¹ and the kon is 81600 M⁻¹ s⁻¹.

As for B1, the Kd stood at 16.3 nM, the koff was 0.00119 s⁻¹ and the kon amounted to 72900 M⁻¹ s⁻¹.

In turn, B5 registered a Kd of 24.2 nM, a koff of 0.00185 s⁻¹ and a kon of 76300 M⁻¹ s⁻¹.

B3: the Kd stood at 37.3 nM, the koff came to 0.003 s⁻¹ and the kon turned out to be 80500 M⁻¹ s⁻¹.

A further assay addresses human FGFR2b on cells (human) (UniProt P21802). The experiment in a line: flow cytometry, human FGFR2b OE cells.
For B1, the EC50 stood at 1.25 nM.

Regarding B2, the EC50 is 0.48 nM.

In the case of B3, the EC50 is 1.84 nM.

For a further assay, the target named is soluble human FGFR2b protein (his tag, in-house generated) (human) (UniProt P21802). As to the kind of experiment: SPR (Biacore 8K), antibody captured by anti-human Fc, soluble human FGFR2b-his as analyte. Background: In SPR one partner is held on a chip, and binding of the other changes the refractive index at the surface.
B4: the Kd amounted to 13.9 nM, the koff came to 0.00112 s⁻¹ and the kon is 80600 M⁻¹ s⁻¹.

For the molecule B2, the Kd amounted to 22.2 nM, the koff turned out to be 0.00232 s⁻¹ and the kon amounted to 104000 M⁻¹ s⁻¹.

In the case of B3, the dissociation constant Kd came out at 24.7 nM, the koff stood at 0.00189 s⁻¹ and the kon came to 76600 M⁻¹ s⁻¹.

A further assay concerns the target human FGFR2b on cells (human) (UniProt P21802). The experiment in a line: flow cytometry, Expi293 cells overexpressing human FGFR2b.
The molecule B4 came in with an EC50 of 3.29 nM and an Emax (MFI) of 2.98e+06 MFI.

For the molecule B1, the EC50 came to 1.5 nM and the Emax (MFI) stood at 3.05e+06 MFI.

On to B5, for which the EC50 amounted to 2.12 nM and the Emax (MFI) came to 3.09e+06 MFI.

Molecule B3 registered an EC50 of 2.4 nM and an Emax (MFI) of 3.08e+06 MFI.

In the next assay the target is human FGFR2b protein (recombinant, coated on ELISA plates) (human) (UniProt P21802). The experiment in a line: ELISA, plate-coated human FGFR2b. This is another data set of the same source.
For the molecule B4, the EC50 worked out at 0.0518 nM and the Emax (A450) was determined as 2.99 A450.

For the molecule B1, the EC50 is 0.0309 nM and the Emax (A450) stood at 3.01 A450.

Consider B5, for which the EC50 turned out to be 0.0442 nM and the Emax (A450) was found to be 2.95 A450.

B3: the EC50 is 0.031 nM and the Emax (A450) was determined as 2.94 A450.

The next assay addresses human FGFR2c on cells (human) (UniProt P21802). The experiment in a line: flow cytometry, Expi293 cells overexpressing human FGFR2c.
Turning to B4, the Emax (MFI) stood at 21700 MFI.

Turning to B1, the Emax (MFI) was found to be 23100 MFI.

Turning to B5, the Emax (MFI) came to 22600 MFI.

Turning to B3, the Emax (MFI) stood at 23800 MFI.

Source of the values: US20250222125A1, “Anti-FGFR2b Antibodies, Conjugates and Methods of Use” (BeiGene, Ltd., priority 2024, published 2025).
